Assay results reported in the supplement of paper PMC10567573.

B1: STX11 (parent)
chain: FQRAMHDYNQAEMKQRDNCKIRIQ

Variants of: B1
Experiment: protein stability index of a GFP-peptide fusion (GPS, HEK-293T) (PSI 1-6); higher = more stable
Details: c terminus: a fixed tail appended
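Note: lentivirally expressed fusions sorted by FACS into six bins by GFP to DsRed ratio, PSI derived from sequencing read proportions per bin multiplied by bin number.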

First: FQRAMHDYNEAEMKQRDNCKIRIQ [Q10E]
Second: FQRAMHDYNIAEMKQRDNCKIRIQ [Q10I]
The protein stability index of the first is higher: 2.74 for the first, 2.31 for the second.

Going from FQRAMHDYNQACMKQRDNCKIRIQ [E12C] to FQRAMHDYNQAIMKQRDNCKIRIQ [E12I], the protein stability index rises from 2.11 to 2.44.

Going from FQRAMHDYNQADMKQRDNCKIRIQ [E12D] to FQRAMHDYNQAMMKQRDNCKIRIQ [E12M], the protein stability index falls from 2.5 to 1.6.

Compared with FQRAMHDYNQAGMKQRDNCKIRIQ [E12G], FQRAMHCYNQAEMKQRDNCKIRIQ [D7C] is lower in protein stability index: 2.05 for the first, 1.71 for the second.

First: FQRAMHMYNQAEMKQRDNCKIRIQ [D7M]
Second: FQRAMHRYNQAEMKQRDNCKIRIQ [D7R]
The protein stability index of the first is higher: 2.85 for the first, 2.12 for the second.

First: FQRAMHHYNQAEMKQRDNCKIRIQ [D7H]
Second: FQRAMHDYNQAEMKQWDNCKIRIQ [R16W]
The protein stability index of the first is lower: 2.3 for the first, 2.43 for the second.

Going from FQRAMHDYNQAEMKQYDNCKIRIQ [R16Y] to FQRAMHDYNQAEMKQTDNCKIRIQ [R16T], the protein stability index rises from 2.65 to 2.67.

First: FQRAMHDYNQAEMKQNDNCKIRIQ [R16N]
Second: FQRAMHDYNQAEMKQSDNCKIRIQ [R16S]
The protein stability index of the first is higher: 2.7 for the first, 2.41 for the second.

Compared with FQRAMHDYNQAEMKQIDNCKIRIQ [R16I], FQRAMHDFNQAEMKQRDNCKIRIQ [Y8F] is higher in protein stability index: 2.34 for the first, 2.52 for the second.

Going from FQRAMHDLNQAEMKQRDNCKIRIQ [Y8L] to FQRAMHDRNQAEMKQRDNCKIRIQ [Y8R], the protein stability index rises from 2.39 to 2.61.

Going from FQRAMHDGNQAEMKQRDNCKIRIQ [Y8G] to FQRAMHDMNQAEMKQRDNCKIRIQ [Y8M], the protein stability index falls from 3.39 to 3.15.

Compared with FCRAMHDYNQAEMKQRDNCKIRIQ [Q2C], FARAMHDYNQAEMKQRDNCKIRIQ [Q2A] is higher in protein stability index: 1.79 for the first, 2 for the second.

Going from FLRAMHDYNQAEMKQRDNCKIRIQ [Q2L] to FQRAMHDYNQAEMKQRDNCKSRIQ [I21S], the protein stability index rises from 2.65 to 3.5.

Compared with FQRAMHDYNQAEMKQRDNCKCRIQ [I21C], FQRAMHDYNQAEMKQRDNCKNRIQ [I21N] is higher in protein stability index: 2.36 for the first, 2.98 for the second.

Compared with FQRAMHDYNQAEMKQRDNCKDRIQ [I21D], FQRAMHDYNQAEMKQRDNCKQRIQ [I21Q] is lower in protein stability index: 3.86 for the first, 3.04 for the second.

Going from FQRAMHDYNQAEMKQRDNRKIRIQ [C19R] to FQRAMHDYNQAEMKQRDNSKIRIQ [C19S], the protein stability index rises from 2.59 to 3.27.

Going from FQRAMHDYNQAEMKQRDNIKIRIQ [C19I] to FQRAMHDYNQAEMKQRDNMKIRIQ [C19M], the protein stability index rises from 2.55 to 2.85.

Compared with FQRAMPDYNQAEMKQRDNCKIRIQ [H6P], FQRAMIDYNQAEMKQRDNCKIRIQ [H6I] is lower in protein stability index: 2.5 for the first, 2.42 for the second.

Going from FQRAMYDYNQAEMKQRDNCKIRIQ [H6Y] to FQRAMMDYNQAEMKQRDNCKIRIQ [H6M], the protein stability index falls from 3.26 to 1.96.

Compared with FQRAMGDYNQAEMKQRDNCKIRIQ [H6G], FQRAMHDYRQAEMKQRDNCKIRIQ [N9R] is higher in protein stability index: 2.9 for the first, 4.08 for the second.

Compared with FQRAMHDYQQAEMKQRDNCKIRIQ [N9Q], FQRAMHDYVQAEMKQRDNCKIRIQ [N9V] is lower in protein stability index: 2.64 for the first, 2 for the second.

Going from FQRAMHDYPQAEMKQRDNCKIRIQ [N9P] to FQRAMHDYKQAEMKQRDNCKIRIQ [N9K], the protein stability index falls from 3.11 to 2.29.

Compared with FQRAMHDYNQAEMKQRDNCKIRID [Q24D], FQRAMHDYNQAEMKQRDNCKIRIK [Q24K] is higher in protein stability index: 2.81 for the first, 2.87 for the second.

First: FQRAMHDYNQAEMKQRDNCKIRIY [Q24Y]
Second: FQRAMHDYNQAEMKQRDNCKIRIF [Q24F]
The protein stability index of the first is lower: 2.05 for the first, 2.17 for the second.

Compared with FQRAMHDYNQAEMKQRDNCKIRIM [Q24M], FQRAMHDYNQTEMKQRDNCKIRIQ [A11T] is lower in protein stability index: 2.69 for the first, 2.43 for the second.

FQRAMHDYNQVEMKQRDNCKIRIQ [A11V] and FQRAMHDYNQREMKQRDNCKIRIQ [A11R] are the same in protein stability index: 2.79 for the first, 2.79 for the second.

Going from FQRAMHDYNQAEMGQRDNCKIRIQ [K14G] to FQRAMHDYNQAEMVQRDNCKIRIQ [K14V], the protein stability index falls from 3.11 to 2.48.

Compared with FQRAMHDYNQAEMEQRDNCKIRIQ [K14E], FQRAMHDYNQAEMTQRDNCKIRIQ [K14T] is lower in protein stability index: 3.93 for the first, 2.69 for the second.

Going from FQRAMHDYNQAEMWQRDNCKIRIQ [K14W] to FQRAMHDYNQAEMCQRDNCKIRIQ [K14C], the protein stability index rises from 2.86 to 3.08.

First: FQRDMHDYNQAEMKQRDNCKIRIQ [A4D]
Second: FQRSMHDYNQAEMKQRDNCKIRIQ [A4S]
The protein stability index of the first is higher: 3.4 for the first, 2.8 for the second.

Going from FQPAMHDYNQAEMKQRDNCKIRIQ [R3P] to FQSAMHDYNQAEMKQRDNCKIRIQ [R3S], the protein stability index falls from 2.99 to 2.51.

Going from FQDAMHDYNQAEMKQRDNCKIRIQ [R3D] to FQGAMHDYNQAEMKQRDNCKIRIQ [R3G], the protein stability index falls from 3.44 to 2.88.

Compared with FQKAMHDYNQAEMKQRDNCKIRIQ [R3K], FQRARHDYNQAEMKQRDNCKIRIQ [M5R] is lower in protein stability index: 3.01 for the first, 2.78 for the second.

Compared with FQRAQHDYNQAEMKQRDNCKIRIQ [M5Q], FQRAMHDYNQAEMKMRDNCKIRIQ [Q15M] is lower in protein stability index: 2.95 for the first, 1.86 for the second.

Compared with FQRAMHDYNQAEMKRRDNCKIRIQ [Q15R], FQRAMHDYNQAEMKKRDNCKIRIQ [Q15K] is lower in protein stability index: 2.64 for the first, 2.15 for the second.

Compared with FQRAMHDYNQAEMKFRDNCKIRIQ [Q15F], FQRAMHDYNQAEMKQRDNCKIRGQ [I23G] is higher in protein stability index: 2.01 for the first, 3.25 for the second.

First: FQRAMHDYNQAEMKQRDNCKIRLQ [I23L]
Second: FQRAMHDYNQAEMKQRDNCKIRAQ [I23A]
The protein stability index of the first is lower: 2.87 for the first, 3.51 for the second.

First: FQRAMHDYNQAEMKQRDNCKIRPQ [I23P]
Second: FQRAMHDYNQAEMKQRDNCKIRFQ [I23F]
The protein stability index of the first is higher: 3.24 for the first, 2.5 for the second.

First: FQRAMHDYNQAEMKQRDNCKIRVQ [I23V]
Second: FQRAMHDYNQAEMKQRDNCKIREQ [I23E]
The protein stability index of the first is lower: 2.85 for the first, 3.53 for the second.

First: FQRAMHDYNQAEMKQRDNCKIRRQ [I23R]
Second: FQRAMHDYNQAEMKQRDNCKIHIQ [R22H]
The protein stability index of the first is higher: 2.74 for the first, 2.49 for the second.

FQRAMHDYNQAEMKQRDNCKINIQ [R22N] and FQRAMHDYNQAEMKQRDNCKIAIQ [R22A] are the same in protein stability index: 2.61 for the first, 2.61 for the second.

Going from FQRAMHDYNQAEMKQRDNCKIDIQ [R22D] to FQRAMHDYNQAEMKQRDNCKIYIQ [R22Y], the protein stability index falls from 3.13 to 2.59.

Going from FQRAMHDYNQAEMKQRDFCKIRIQ [N18F] to FQRAMHDYNQAEMKQRDDCKIRIQ [N18D], the protein stability index rises from 2.36 to 2.88.

First: FQRAMHDYNQAEMKQRDECKIRIQ [N18E]
Second: FQRAMHDYNQAEMKQRDRCKIRIQ [N18R]
The protein stability index of the first is higher: 3.11 for the first, 2.44 for the second.

Going from FQRAMHDYNQAEMKQRDLCKIRIQ [N18L] to PQRAMHDYNQAEMKQRDNCKIRIQ [F1P], the protein stability index rises from 2.48 to 4.17.

Compared with QQRAMHDYNQAEMKQRDNCKIRIQ [F1Q], MQRAMHDYNQAEMKQRDNCKIRIQ [F1M] is lower in protein stability index: 4.13 for the first, 3.82 for the second.

Going from RQRAMHDYNQAEMKQRDNCKIRIQ [F1R] to DQRAMHDYNQAEMKQRDNCKIRIQ [F1D], the protein stability index rises from 3.28 to 4.15.
